From the supplement of paper PMC7877785 come the findings set out here.

± gives the uncertainty stated by the source.

This series can be described thus: self-splicing fitness, log relative to wild type (ln ratio); higher = more splicing; Tetrahymena group I intron in knt gene, E. coli kanamycin selection, DiMSum; sequences stand for … in CUCUCU…GGAGGGAAAAGUUAUCAGGCAUGCACCUGGUAGCUAGUCUUUAAACCAAUAGAUUGCAUCGGUUUAAAAGGCAAGACCGUCAAAUUGCGGGAAAGGGGUCAACAGCCGUUCAGUACCAAGUCUCAGGGGAAACUUUGAGAUGGCCUUGCAAAGGGUAUGGUAAUAAGCUGACGGACAUGGUCCUAACCACGCAGCCAAGUCCUAAGUCAACAGAUCUUCUGUUGAUAUGGAUGCAGUUCACAGACUAAAUGUCGGUCGGGGAAGAUGUAUUCUUCUCAUAAGAUAUAGUCGGACCUCUCCUUAAUGGGAGCUAGCGGAUGAAGUGAUGCAACACUGGAGCCGCUGGGAACUAAUUUGUAUGCGAAAGUAUAUUGAUUAGUUUUGGAGUACUCGUGGUCG
The method in brief:
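Colonies from six replicate transformations of E. coli BL21(DE3) were pooled and amplicon-sequenced on an Illumina HiSeq 2500. The library placed an intron with all eight P1ex-region nucleotides randomised inside the knt kanamycin-resistance gene on pET-22b(+), and cells grew overnight at 37°C or 30°C on LB agar with or without 25 μg/mL kanamycin (plus 100 μg/mL carbenicillin, 50 μM IPTG, 0.2% rhamnose). Fitness is the DiMSum error-weighted combination of wild-type-normalised replicate fold changes, kanamycin versus none.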

Take UCCUAGCAAUAUUACGGUGU: the “self-splicing fitness (ln)” value is -1.71 ± 0.067 (30 °C) and -0.222 ± 0.097 (37 °C).

On to UCCUAGCAAUAUUACGUCCG, for which the “self-splicing fitness (ln)” value (30 °C) was -3.98 ± 0.25 and the “self-splicing fitness (ln)” value (37 °C) was -3.81 ± 0.34.

On to UCCUAGCAAUAUUACGUCGG, for which the “self-splicing fitness (ln)” value (30 °C) is -2.31 ± 0.19 and the “self-splicing fitness (ln)” value (37 °C) is -0.128 ± 0.15.

In the case of UCCUAGCAAUAUUACGUGCA, the “self-splicing fitness (ln)” value (30 °C) was -2.86 ± 0.29 and the “self-splicing fitness (ln)” value (37 °C) is -1.72 ± 0.2.

As for UCCUAGCAAUAUUACGUUCC, the “self-splicing fitness (ln)” value (30 °C) was -2.61 ± 0.27 and the “self-splicing fitness (ln)” value (37 °C) is -1.72 ± 0.4.

In the case of UCGAAGCAAUAUUACGAAGC, the “self-splicing fitness (ln)” value (37 °C) is -1.84 ± 0.47.

Turning to UCGAAGCAAUAUUACGACGA, the “self-splicing fitness (ln)” value is, setting by setting: (30 °C) -0.904 ± 0.12; (37 °C) -0.374 ± 0.11.

For UCGAAGCAAUAUUACGAUAU, the “self-splicing fitness (ln)” value is, setting by setting: (30 °C) -2.63 ± 0.31; (37 °C) -1.52 ± 0.32.

For the sequence UCGAAGCAAUAUUACGAUCU, the “self-splicing fitness (ln)” value runs as follows: (30 °C) -2.67 ± 0.21; (37 °C) -2.44 ± 0.27.

In the case of UCGAAGCAAUAUUACGAUUG, the “self-splicing fitness (ln)” value is, setting by setting: (30 °C) -2.47 ± 0.27; (37 °C) -1.73 ± 0.23.

Turning to UCGAAGCAAUAUUACGCCCU, the “self-splicing fitness (ln)” value (30 °C) was -2.45 ± 0.2 and the “self-splicing fitness (ln)” value (37 °C) is -1.7 ± 0.13.

For UCGAAGCAAUAUUACGCCUG, the “self-splicing fitness (ln)” value was -0.508 ± 0.14 (30 °C) and -0.022 ± 0.21 (37 °C).

Take UCGAAGCAAUAUUACGGAAG: the “self-splicing fitness (ln)” value is -1.18 ± 0.2 (30 °C) and -2.11 ± 0.38 (37 °C).

In the case of UCGAAGCAAUAUUACGGCGA, the “self-splicing fitness (ln)” value is -0.741 ± 0.12 (30 °C) and -0.539 ± 0.17 (37 °C).

Regarding UCGAAGCAAUAUUACGGGGA, the “self-splicing fitness (ln)” value was -1.17 ± 0.13 (30 °C) and -0.644 ± 0.13 (37 °C).

Consider UCGAAGCAAUAUUACGGGUG, for which the “self-splicing fitness (ln)” value reads like this: (30 °C) -0.763 ± 0.083; (37 °C) -0.756 ± 0.097.

Regarding UCGAAGCAAUAUUACGGUGC, the “self-splicing fitness (ln)” value (30 °C) was -2.62 ± 0.25.

On to UCGAAGCAAUAUUACGUAAC, for which the “self-splicing fitness (ln)” value runs as follows: (30 °C) -2.1 ± 0.19; (37 °C) -2.77 ± 0.38.

UCGAAGCAAUAUUACGUACU: the “self-splicing fitness (ln)” value reads like this: (30 °C) -2.88 ± 0.1; (37 °C) -1.67 ± 0.12.

Take UCGAAGCAAUAUUACGUGUU: the “self-splicing fitness (ln)” value is, setting by setting: (30 °C) -3.56 ± 0.2; (37 °C) -2.47 ± 0.19.

For the sequence UCGCAGCAAUAUUACGAAAG, the “self-splicing fitness (ln)” value (37 °C) was -2.04 ± 0.36.

In the case of UCGCAGCAAUAUUACGAAAU, the “self-splicing fitness (ln)” value is -3.62 ± 0.21 (30 °C) and -2.41 ± 0.24 (37 °C).

Regarding UCGCAGCAAUAUUACGACAA, the “self-splicing fitness (ln)” value is, setting by setting: (30 °C) -1.14 ± 0.19; (37 °C) -1.48 ± 0.2.

Consider UCGCAGCAAUAUUACGACAC, for which the “self-splicing fitness (ln)” value by setting is: (30 °C) -1.67 ± 0.26; (37 °C) -2.78 ± 0.41.

Consider UCGCAGCAAUAUUACGACUU, for which the “self-splicing fitness (ln)” value is -1.84 ± 0.2 (30 °C) and -0.512 ± 0.24 (37 °C).

With UCGCAGCAAUAUUACGAGAC, the “self-splicing fitness (ln)” value is -3.18 ± 0.35 (30 °C) and -1.6 ± 0.4 (37 °C).

Turning to UCGCAGCAAUAUUACGAGUC, the “self-splicing fitness (ln)” value (37 °C) was -2.6 ± 0.38.

In the case of UCGCAGCAAUAUUACGAUAG, the “self-splicing fitness (ln)” value by setting is: (30 °C) -2.26 ± 0.15; (37 °C) -1.26 ± 0.17.

As for UCGCAGCAAUAUUACGCAAG, the “self-splicing fitness (ln)” value by setting is: (30 °C) -3.01 ± 0.17; (37 °C) -1.69 ± 0.25.

On to UCGCAGCAAUAUUACGCCCA, for which the “self-splicing fitness (ln)” value is, setting by setting: (30 °C) -0.827 ± 0.19; (37 °C) 0.0722 ± 0.18.

As for UCGCAGCAAUAUUACGCGCG, the “self-splicing fitness (ln)” value runs as follows: (30 °C) -3.58 ± 0.29; (37 °C) -2.08 ± 0.27.

For the sequence UCGCAGCAAUAUUACGCUCC, the “self-splicing fitness (ln)” value (30 °C) is -2.9 ± 0.46.

In the case of UCGCAGCAAUAUUACGCUCU, the “self-splicing fitness (ln)” value (30 °C) is -3.55 ± 0.23 and the “self-splicing fitness (ln)” value (37 °C) is -1.35 ± 0.13.

For the sequence UCGCAGCAAUAUUACGGCAU, the “self-splicing fitness (ln)” value by setting is: (30 °C) -1.99 ± 0.074; (37 °C) -0.415 ± 0.077.

UCGCAGCAAUAUUACGGCUA: the “self-splicing fitness (ln)” value is 0.198 ± 0.091 (30 °C) and 0.317 ± 0.098 (37 °C).

For the sequence UCGCAGCAAUAUUACGGGGA, the “self-splicing fitness (ln)” value was -1.31 ± 0.12 (30 °C) and -1.11 ± 0.1 (37 °C).

Consider UCGCAGCAAUAUUACGUGAG, for which the “self-splicing fitness (ln)” value is -0.263 ± 0.042 (30 °C) and -0.325 ± 0.063 (37 °C).

On to UCGCAGCAAUAUUACGUGCA, for which the “self-splicing fitness (ln)” value runs as follows: (30 °C) -2.17 ± 0.074; (37 °C) -0.836 ± 0.071.

As to UCGCAGCAAUAUUACGUGCC, the “self-splicing fitness (ln)” value is, setting by setting: (30 °C) -2.66 ± 0.21; (37 °C) -2.7 ± 0.36.

Consider UCGCAGCAAUAUUACGUUGC, for which the “self-splicing fitness (ln)” value (37 °C) is -4.15 ± 0.42.
